We go through six molecules from patent US20120156193A1 (IMMUNAS PHARMA, published 2012).

Residue numbers refer to the chain shown, from its start.

The labels stand for the following.
B1: IR-099 antibody (antibody, V domains shown)
VH: DVQLVESGGGLVQPGGSRKLSCAASGFTFSRFGMHWVRQAPEKGLEWVAYISSGRSTIYYADTVKGRFTISRDNPKNTLFLQMTSLRSEDTAMYYCARGGGNYVGAMDYWGQGTSVTVSS
VL: DAVMTQTPLSLPVSLGDQASISCRSSQSLENSNGNTYLNWYLQKPGQSPQLLIYRVSNRFSGVLDRFSGSGSGTDFTLKISRVEAEDLGVYFCLQVTHVPPTFGGGTKLEIK
notes: Mouse monoclonal from a hybridoma
B2: IR-003 antibody (antibody, V domains shown)
VH: QVTLKESGPGILQPSQTLSLTCSFSGFSLSTSGMGVSWIRQPSGKGLEWLAHIYWDDDKRYNPSLKSRLTISKDTSSNQVFLKITSVDTADTATYYCARRGEVRRRGYYAMDYWGQGTSVTVSS
VL: DVVMTQTPLSLPVSLGDQASISCRSSQSLVHSNGNTYLHWYLQKPGQSPKLLIYKVSNRFSGVPDRFSGSGSGTDFTLKISRVEAEDLGVYFCSQSTHVPLTFGAGTKLELK
notes: Mouse monoclonal from a hybridoma (BALB/c); constant regions are not
B3: IR-148 antibody (antibody, V domains shown)
VH: DVQLVESGGGLVQPGGSRKLSCAASGFTFSSFGMHWVRQAPEKGLEWVAYISSGSSTIYYADTVKGRFTISRDNPKNTLFLQMTSLRSEDTAMYYCARDYYGMDYWGQGTSVTVSS
VL: B2 VL
notes: as for B1
B4: IR-103 antibody (antibody, V domains shown)
VH: DVQLVESGGGLVQPGGSRKLSCAASGFTFSSFGMHWVRQAPEKGLEWVAYISSGSSTIYYADTVKGRFTISRDNPKNTLFLQMTSLRSEDTAMYYCARSPLLRLQGLAYWGQGTLVTVSA
VL: B2 VL with V3L, L29I, H39E, F92Y, S94F, S96G, T97S, L101P, A105G, L111I
notes: as for B1
B5: IR-091 antibody (antibody, V domains shown)
VH: QVTLKESGPGILKPSQTLSLTCSFSGFSLSTSGMGVGWIRQPSGKGLEWLAHIWWDDDKYYNPSLKSQLTISKDTSRNQVFLKITSVDTADTATYYCARRGLRRGDYFDYWGQGTTLTVSS
VL: B2 VL with V3L, L29I, H39E, F92Y, S94F, S96G, T97S
notes: as for B1
B6: IR-130 antibody (antibody, V domains shown)
VH: EVKLVESGGGLVQPGGSLKLSCATSGFTFSDYYMYWVRQTPEKRLEWVAYISNGGGSTYYPDTVKGRFTISRDNAKNTLYLQMSRLKSEDTAMYYCARGTSYGSSLHYYAMDYWGQGTSVTVSS
VL: B2 VL
notes: as for B1

This assay has as its target T1, A beta 1-40 oligomer (synthetic A beta1-40, HCl form, 0.1 mg/ml in PBS, incubated at 37 degrees C for one … (UniProt P05067 672-711)).
T1 construct: domain: A beta 1-40; Non-fibrous assembly of many copies of the same peptide; also called A beta oligomer
Put plainly: SPR, Biacore 3000, A beta oligomer on CM5 chip, antibody as analyte. The protocol:
The analysis was carried out by Surface Plasmon Resonance (SPR) using Biacore 3000 (GE Healthcare Sciences).
As usually defined, the Kd is a measure of binding affinity in units of concentration. Read a high Kd as a looser complex. The term koff denotes the first-order rate constant of dissociation. As a reminder, the kon is the rate constant with which the complex forms. A higher kon goes with fast association. Turning to B1, binding was characterised by a dissociation constant (Kd) of 9.3 nM, the koff worked out at 0.00252 s⁻¹ and the kon is 271000 M⁻¹ s⁻¹.

B2 gave an equilibrium dissociation constant (Kd) of 24.5 nM, a koff of 0.00232 s⁻¹ and an on-rate (kon) of 94800 M⁻¹ s⁻¹.

B3 displayed a Kd of 38.6 nM, a koff of 0.000931 s⁻¹ and an on-rate (kon) of 24100 M⁻¹ s⁻¹.

The molecule B4 returned a Kd of 43.9 nM, a koff of 0.00571 s⁻¹ and a kon of 130000 M⁻¹ s⁻¹.

In the case of B5, binding was put at a Kd of 7.37 nM, the koff turned out to be 0.00188 s⁻¹ and the kon came to 255000 M⁻¹ s⁻¹.

As to B6, the affinity, expressed as Kd, was 667 nM; the off-rate constant (koff) worked out at 0.11 s⁻¹; the kon worked out at 165000 M⁻¹ s⁻¹.
